Test results reported in US20090298083.

Experiments:
[1] = test system: FLAG-Pax3-FOXO1 fusion; assay: cell_activity; details: CAT assay, proliferating mouse primary myoblasts; no significant change during differentiation
[2] = target: FLAG-Pax3 (UniProt P23760); assay: cell_activity; details: CAT assay, proliferating mouse primary myoblasts; activity completely lost after 12 h differentiation
[3] = target: GST-Pax3 phosphorylated at Ser205 by CKII (UniProt P23760); assay: EMSA; details: Pax3 phosphorylated at Ser205 by CKII; reference for maximal binding; nearly 10-fold more binding than unphosphorylated
[4] = target: GST-Pax3 non-phosphorylated (UniProt P23760); assay: EMSA; details: unphosphorylated; value inferred from nearly 10-fold increase on CKII phosphorylation
Chain of GST-Pax3 non-phosphorylated (P23760 other isoform, or with tags, fused parts or gaps): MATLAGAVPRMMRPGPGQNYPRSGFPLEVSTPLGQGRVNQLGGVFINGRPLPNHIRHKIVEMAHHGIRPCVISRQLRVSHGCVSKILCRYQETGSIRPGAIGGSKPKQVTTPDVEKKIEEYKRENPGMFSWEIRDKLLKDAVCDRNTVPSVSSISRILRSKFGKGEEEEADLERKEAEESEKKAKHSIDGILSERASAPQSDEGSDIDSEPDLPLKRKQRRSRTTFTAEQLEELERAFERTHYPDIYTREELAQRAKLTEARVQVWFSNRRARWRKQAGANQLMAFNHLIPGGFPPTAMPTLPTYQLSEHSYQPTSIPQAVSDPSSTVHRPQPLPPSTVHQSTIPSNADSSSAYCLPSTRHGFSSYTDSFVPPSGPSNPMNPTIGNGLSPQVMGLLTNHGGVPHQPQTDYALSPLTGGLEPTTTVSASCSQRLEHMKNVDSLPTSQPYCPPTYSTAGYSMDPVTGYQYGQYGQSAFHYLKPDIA

Chain of GST-Pax3 phosphorylated at Ser205 by CKII (P23760 other isoform, or with tags, fused parts or gaps): as above
Chain of FLAG-Pax3 (P23760 other isoform, or with tags, fused parts or gaps): as above

| Substance | activity (fold over background) [1] | activity (fold over background) [2] | binding signal [3] [%] | binding signal [4] [%] |
| --- | --- | --- | --- | --- |
| (PRS-9)TK-CAT reporter, six tandem repeats of Pax3 paired and homeodomain recognition sequence | 4 | 2 |  |  |
| oligonucleotide with paired- and homeodomain recognition sequences |  |  | 100 | 10 |
